The source of these data is patent publication US20030082682A1 (published 2003).

T1: RXR interacting protein, RB204 (human, UniProt O75064 240-1496, limits assumed)
T1 construct: Prey clone from a two-hybrid cDNA library (human bone and cartilage cells) in a vector derived from pJG4-5
T1 sequence: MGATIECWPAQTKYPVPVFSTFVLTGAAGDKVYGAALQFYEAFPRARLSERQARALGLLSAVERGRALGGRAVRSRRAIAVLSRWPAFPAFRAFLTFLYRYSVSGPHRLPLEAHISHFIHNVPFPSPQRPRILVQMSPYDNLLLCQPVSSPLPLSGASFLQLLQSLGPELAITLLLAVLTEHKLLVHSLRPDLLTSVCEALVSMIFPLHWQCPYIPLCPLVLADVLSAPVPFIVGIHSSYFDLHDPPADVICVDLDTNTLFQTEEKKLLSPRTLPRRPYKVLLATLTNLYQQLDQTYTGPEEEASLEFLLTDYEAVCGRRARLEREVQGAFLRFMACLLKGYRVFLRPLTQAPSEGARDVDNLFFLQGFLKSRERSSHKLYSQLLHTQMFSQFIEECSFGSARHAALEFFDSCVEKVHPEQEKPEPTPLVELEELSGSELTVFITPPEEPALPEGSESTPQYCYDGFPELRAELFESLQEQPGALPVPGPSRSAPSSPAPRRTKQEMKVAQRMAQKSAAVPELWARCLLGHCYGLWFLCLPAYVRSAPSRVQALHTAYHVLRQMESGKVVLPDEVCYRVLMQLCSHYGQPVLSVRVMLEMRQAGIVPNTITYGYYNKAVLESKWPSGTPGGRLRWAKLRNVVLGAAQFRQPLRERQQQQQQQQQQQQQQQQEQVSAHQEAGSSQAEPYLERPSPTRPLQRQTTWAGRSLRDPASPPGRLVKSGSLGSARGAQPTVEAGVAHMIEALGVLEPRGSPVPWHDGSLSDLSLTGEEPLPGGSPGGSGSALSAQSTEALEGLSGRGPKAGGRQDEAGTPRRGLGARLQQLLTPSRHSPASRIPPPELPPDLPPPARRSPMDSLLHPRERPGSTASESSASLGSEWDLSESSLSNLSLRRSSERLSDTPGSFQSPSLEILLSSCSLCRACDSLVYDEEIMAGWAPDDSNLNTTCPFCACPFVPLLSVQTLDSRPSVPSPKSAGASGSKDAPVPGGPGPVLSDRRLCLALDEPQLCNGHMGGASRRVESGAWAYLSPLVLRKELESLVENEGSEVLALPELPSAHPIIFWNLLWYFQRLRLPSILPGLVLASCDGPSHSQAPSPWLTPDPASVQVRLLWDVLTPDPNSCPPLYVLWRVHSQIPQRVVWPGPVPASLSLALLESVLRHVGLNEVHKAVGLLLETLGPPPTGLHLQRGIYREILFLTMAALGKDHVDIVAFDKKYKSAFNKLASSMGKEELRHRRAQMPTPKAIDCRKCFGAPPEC

B1: ERb (receptor, UniProt Q92731 248-530, looked up)
chain: SGGHAPRVRELLLDALSPEQLVLTLLEAEPPHVLISRPSAPFTEASMMMSLTKLADKELVHMISWAKKIPGFVELSLFDQVRLLESCWMEVLMMGLMWRSIDHPGKLIFAPDLVLDRDEGKCVEGILEIFDMLLATTSRFRELKLQHKEYLCVKAMILLNSSMYPLVTATQDADSSRKLAHLLNAVTDALVWVIAKSGISSQQQSMRLANLLMLLSHVRHASNKGMEHLLNMKCKNVVPVYDLLLEMLNAHVLRGCKSSITGSECSPAEDSKSKEGSQNPQSQ
notes: Member of the panel of nuclear hormone receptors in the directed two-hybrid analysis; the construct is not described
B2: HNF4g (receptor, UniProt Q14541 99-408, looked up)
chain: SNIPSINTLAQAEVRSRQISVSSPGSSTDINVKKIASIGDVCESMKQQLLVLVEWAKYIPAFCELPLDDQVALLRAHAGEHLLLGATKRSMMYKDILLLGNNYVIHRNSCEVEISRVANRVLDELVRPFQEIQIDDNEYACLKAIVFFDPDAKGLSDPVKIKNMRFQVQIGLEDYINDRQYDSRGRFGELLLLLPTLQSITWQMIEQIQFVKLFGMVKIDNLLQEMLLGGASNDGSHLHHPMHPHLSQDPLTGQTILLGPMSTLVHADQISTPETPLPSPPQGSGQEQYKIAANQASVISHQHLSKQKQL
notes: as for B1
B3: PPARd (receptor, UniProt Q03181 139-441, looked up)
chain: SHNAIRFGRMPEAEKRKLVAGLTANEGSQYNPQVADLKAFSKHIYNAYLKNFNMTKKKARSILTGKASHTAPFVIHDIETLWQAEKGLVWKQLVNGLPPYKEISVHVFYRCQCTTVETVRELTEFAKSIPSFSSLFLNDQVTLLKYGVHEAIFAMLASIVNKDGLLVANGSGFVTREFLRSLRKPFSDIIEPKFEFAVKFNALELDDSDLALFIAAIILCGDRPGLMNVPRVEAIQDTILRALEFHLQANHPDAQYLFPKLLQKMADLRQLVTEHAQMMQRIKKTETETSLHPLLQEIYKDMY
notes: as for B1
B4: PPARa (receptor, UniProt Q07869 167-468, looked up)
chain: SHNAIRFGRMPRSEKAKLKAEILTCEHDIEDSETADLKSLAKRIYEAYLKNFNMNKVKARVILSGKASNNPPFVIHDMETLCMAEKTLVAKLVANGIQNKEAEVRIFHCCQCTSVETVTELTEFAKAIPGFANLDLNDQVTLLKYGVYEAIFAMLSSVMNKDGMLVAYGNGFITREFLKSLRKPFCDIMEPKFDFAMKFNALELDDSDISLFVAAIICCGDRPGLLNVGHIEKMQEGIVHVLRLHLQSNHPDDIFLFPKLLQKMADLRQLVTEHAQLVQIIKKTESDAALHPLLQEIYRDMY
notes: as for B1

This assay addresses T1, RXR interacting protein, RB204. The experiment in a line: two-hybrid, directed analysis against a panel of nuclear hormone receptors. On the procedure:
Screening was performed as per standard protocols (Golemis et al., Current protocols in molecular biology, 20.0.1,1999). […] RB204 interacts weakly with ERa in the presence of estradiol. Sequence analysis identified an LXXLL nuclear hormone interaction motif within the RB204 open reading frame.
Take B1: the binding result is given as “no binding”.
The value for B2 was “no binding”.
The same measure for B3: “no binding”.
The value for B4 was “no binding”.
